In assay [1] the target is T1, human C5 R885C-mmh (human, UniProt P01031 19-1676).
T1 construct: also called human C5 variant R885C
The assay is described as follows: SPR, mAb captured via anti-hFc, 37C. On the procedure: (§1) Equilibrium dissociation constants (KD values) for C5 binding to purified anti-C5 antibodies were determined using a real-time surface plasmon resonance biosensor assay on a Biacore T200 instrument. The Biacore sensor surface was derivatized by amine coupling with a monoclonal mouse anti-human Fc antibody (GE Healthcare, # BR-1008-39) to capture anti-C5 antibodies expressed with human Fc constant regions. Biacore binding studies were conducted in HBST running buffer (0.01M HEPES pH 7.4, 0.15M NaCl, 3 mM EDTA, 0.05% v/v Surfactant P20).
(§2) Human C5 was obtained from a commercial source (EMD). Other C5 reagents were expressed with a C-terminal myc-myc-hexahistidine tag (subsequently referred to as C5-mmh). […] Association of all the C5 reagents to each of the captured monoclonal antibodies was monitored for 3 minutes and their dissociation in HBST running buffer was monitored for 8 minutes. All the binding kinetics experiments were performed at either 25° C. or 37° C. Kinetic association (kₐ) and dissociation (kd) rate constants were determined by fitting the real-time sensorgrams to a 1:1 binding model using Scrubber 2.0c curve fitting software. Binding dissociation equilibrium constants (KD) and dissociative half-lives (t %) were calculated from the kinetic rate constants as: KD (M)=kd/kₐ and t_{1/2} (min)=In2/(60×kd)

The target in assay [2] is T2, human C5 R885H-mmh (human, UniProt P01031 19-1676).
T2 construct: also called human C5 variant R885H
Description: SPR, mAb captured via anti-hFc, 37C. On the procedure: as §1, §2

Assay [3] concerns the target T3, monkey C5-mmh (monkey, UniProt P01031 19-1676 (human entry), limits assumed).
T3 construct: Recombinant monkey C5 with a C-terminal myc-myc-hexahistidine tag
T3 chain: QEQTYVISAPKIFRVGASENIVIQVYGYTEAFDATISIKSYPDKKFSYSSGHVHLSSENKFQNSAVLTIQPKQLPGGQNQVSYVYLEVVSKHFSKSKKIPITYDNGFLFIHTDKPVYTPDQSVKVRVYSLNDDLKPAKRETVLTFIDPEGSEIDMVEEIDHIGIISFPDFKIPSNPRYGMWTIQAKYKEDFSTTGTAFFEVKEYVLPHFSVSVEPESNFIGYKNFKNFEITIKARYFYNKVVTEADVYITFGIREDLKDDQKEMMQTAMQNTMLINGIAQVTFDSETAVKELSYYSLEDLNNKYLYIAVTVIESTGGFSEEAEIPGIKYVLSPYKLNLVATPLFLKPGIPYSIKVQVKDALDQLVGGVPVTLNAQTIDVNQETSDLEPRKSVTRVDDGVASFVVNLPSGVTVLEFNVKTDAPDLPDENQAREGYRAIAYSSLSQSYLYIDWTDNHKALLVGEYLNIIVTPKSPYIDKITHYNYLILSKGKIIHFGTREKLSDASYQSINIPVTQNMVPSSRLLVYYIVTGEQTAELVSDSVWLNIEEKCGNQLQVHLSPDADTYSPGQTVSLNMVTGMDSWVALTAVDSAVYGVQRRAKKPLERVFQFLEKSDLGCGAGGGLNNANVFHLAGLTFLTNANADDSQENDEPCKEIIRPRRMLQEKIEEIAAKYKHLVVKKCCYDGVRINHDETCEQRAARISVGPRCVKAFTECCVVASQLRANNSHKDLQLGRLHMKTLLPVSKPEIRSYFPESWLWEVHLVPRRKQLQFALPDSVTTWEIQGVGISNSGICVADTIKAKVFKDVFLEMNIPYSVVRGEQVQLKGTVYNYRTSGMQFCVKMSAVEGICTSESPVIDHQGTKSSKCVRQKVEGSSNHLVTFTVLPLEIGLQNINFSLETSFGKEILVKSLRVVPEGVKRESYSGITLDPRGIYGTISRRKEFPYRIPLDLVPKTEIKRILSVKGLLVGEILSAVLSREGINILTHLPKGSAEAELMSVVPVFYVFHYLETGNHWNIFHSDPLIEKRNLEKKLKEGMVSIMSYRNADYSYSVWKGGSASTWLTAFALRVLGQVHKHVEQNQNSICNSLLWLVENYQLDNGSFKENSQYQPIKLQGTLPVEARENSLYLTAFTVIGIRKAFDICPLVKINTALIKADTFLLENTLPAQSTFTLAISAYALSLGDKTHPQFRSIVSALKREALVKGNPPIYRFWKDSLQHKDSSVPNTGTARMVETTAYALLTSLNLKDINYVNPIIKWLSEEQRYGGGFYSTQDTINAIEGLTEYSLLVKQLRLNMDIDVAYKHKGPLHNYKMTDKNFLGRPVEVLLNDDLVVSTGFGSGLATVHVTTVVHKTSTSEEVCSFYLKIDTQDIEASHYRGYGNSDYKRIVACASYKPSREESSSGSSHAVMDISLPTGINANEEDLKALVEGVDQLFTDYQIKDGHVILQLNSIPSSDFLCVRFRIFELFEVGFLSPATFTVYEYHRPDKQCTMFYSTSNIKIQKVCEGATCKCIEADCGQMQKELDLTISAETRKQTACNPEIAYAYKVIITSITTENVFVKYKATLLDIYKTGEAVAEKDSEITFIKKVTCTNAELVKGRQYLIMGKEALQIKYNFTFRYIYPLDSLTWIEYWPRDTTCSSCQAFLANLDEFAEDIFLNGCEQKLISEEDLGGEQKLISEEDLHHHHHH
Description: SPR, mAb captured via anti-hFc, 37C. The method, then:
as §1, §2
(SPR reads the build-up and loss of mass on a sensor chip optically.)

Assay [4] addresses T1, human C5 R885C-mmh. Description: SPR, mAb captured via anti-hFc, 25C. The method, then: as §1, §2
Assay [5] addresses T2, human C5 R885H-mmh. Description: SPR, mAb captured via anti-hFc, 25C. The method, then:
as §1, §2

Assay [6] concerns the target African green monkey C5 (African green monkey). The assay is described as follows: cell-based or functional assay.
Assay [7] concerns the target Cynomolgus monkey C5 (cynomolgus monkey, UniProt A0A2K5U1T1 19-1676). The assay is described as follows: cell-based or functional assay.
Assay [8] has as its target T4, human C5 (human, UniProt P01031 19-1676).
T4 construct: Bought human C5 (EMD #204888, said elsewhere to be purified from plasma); also called hC5; complement component 5
The assay is described as follows: SPR, mAb captured via anti-hFc, dissociation at pH7.4 vs pH6.0, 25C. The method, then:
Effect of pH on the rate of dissociation of recombinant human C5 bound to purified anti-C5 monoclonal antibodies was determined using a real-time surface plasmon resonance biosensor using a Biacore T200 instrument. The Biacore sensor surface was first derivatized by amine coupling with a monoclonal mouse anti-human Fc antibody (GE, # BR-1008-39) to capture anti-C5 monoclonal antibodies expressed with human IgG4 Fc. All Biacore binding studies were performed using two running buffers PBS-T, pH7.4 (0.01M Na₂HPO₄/NaH₂PO₄, 0.15M NaCl, 0.05% v/v Tween-20, adjusted to pH7.4) and PBS-T, pH6.0 (0.01M Na₂HPO₄/NaH₂PO₄, 0.15M NaCl, 0.05% v/v Tween-20, adjusted to pH6.0). […] Binding dissociative half-lives (t %) were calculated from kd as: […]

Where a chain is given by its changes, count along the chain named. Numbers in names are those of the source.

B1: H4H12169P (antibody, human IgG4, V domains shown)
VH: EVQLVESGGGLAQPGGSLRLSCAASGFTFRSYAMSWVRQAPGKGPEWVSGIGGNGVTTYYADSVKGRFTISRDNSKNTLFLQMNSLRAEDTAVYYCVQGGLGGYFTGYWGQGTLVTVSS
VL: DIQMTQSPSSLSASVGDRVTITCRASQSISTYLNWYQQNPGKAPKLLIFDASSLQSGVPSRFSGSGSGTDFTLTIRGLQPEDFATYYCQQSYSAPLTFGGGTKVEIK
notes: Human IgG4 Fc with S108P hinge mutation (H4H)
As to B1, in assay [1], the “100 nM Human C5 R885C-mmh Bound (RU)” value is 75 RU, the Kd stood at 2.24 nM, the koff was 0.000737 s⁻¹ and the kon worked out at 329000 M⁻¹ s⁻¹. In assay [1], this molecule displayed a t1/2 of 16 min. Also, in assay [2], the “100 nM Human C5 R885H-mmh Bound (RU)” value amounted to 79 RU, the Kd was found to be 1.72 nM, the koff stood at 0.000739 s⁻¹ and the kon was 429000 M⁻¹ s⁻¹. Further, the t1/2 in assay [2] came to 16 min. In addition, in assay [3], the “100 nM monkey C5-mmh Bound (RU)” value came out at 64 RU, binding was put at a Kd of 14.3 nM, the koff is 0.00361 s⁻¹ and the kon was determined as 251000 M⁻¹ s⁻¹. The t1/2 in assay [3] worked out at 3 min. Moreover, in assay [4], the “100 nM Human C5 R885C-mmh Bound (RU)” value stood at 168 RU, the Kd stood at 0.251 nM, the koff came out at 6.99e-05 s⁻¹ and the kon is 278000 M⁻¹ s⁻¹. This molecule returned a t1/2 in assay [4] of 165 min. Besides, in assay [5], the “100 nM Human C5 R885H-mmh Bound (RU)” value was found to be 173 RU, the Kd is 0.147 nM, the koff turned out to be 7.09e-05 s⁻¹ and the kon is 484000 M⁻¹ s⁻¹. The t1/2 in assay [5] is 163 min.

B2: H4H12166P (antibody, V domains shown)
VH: QVQLQESGPGLVKPSETLSLTCTVSGDSVSSSYWTWIRQPPGKGLEWIGYIYYSGSSNYNPSLKSRATISVDTSKNQFSLKLSSVTAADTAVYYCAREGNVDTTMIFDYWGQGTLVTVSS
VL: AIQMTQSPSSLSASVGDRVTITCRASQGIRNDLGWYQQKPGKAPKLLIYAASSLQSGVPSRFAGRGSGTDFTLTISSLQPEDFATYYCLQDFNYPWTFGQGTKVEIK
For B2, in assay [6], the “AGM AP % Max Inhibition, hemolysis assay, 5% serum” value was found to be 44.2%; the “AGM CP % Max Inhibition, hemolysis assay, 5% serum” value came to 81%; the “AGM Serum AP IC50, hemolysis assay, 5% serum” value came to 233 nM. Besides, in assay [7], the “Cyno AP % Max Inhibition, hemolysis assay, 5% serum” value stood at 98.6%; the “Cyno CP % Max Inhibition, hemolysis assay, 5% serum” value is 94.2%; the “Cyno Serum AP IC50, hemolysis assay, 5% serum” value came to 8.85 nM; the “Cyno Serum CP IC50, hemolysis assay, 5% serum” value turned out to be 20.1 nM.

B3: H4H12166P6 (antibody, human IgG4, V domains shown)
VH: B2 VH with T103H
VL: B2 VL
notes: Histidine-mutated CDR variant of H4H12166P; human IgG4 Fc with S108P
Consider B3, for which, in assay [3], the “100 nM monkey C5-mmh Bound (RU)” value was 112 RU, the Kd was found to be 9.18 nM, the koff amounted to 0.00232 s⁻¹ and the kon came out at 253000 M⁻¹ s⁻¹. For the same molecule, the t1/2 in assay [3] amounted to 5 min. The “t1/2 Ratio pH7.4/pH6.0” value in assay [8] amounted to 7.8.

B4: H4H12166P2 (antibody, human IgG4, V domains shown)
VH: B2 VH
VL: B2 VL with L89H
notes: as for B3
With B4, in assay [3], the “100 nM monkey C5-mmh Bound (RU)” value was determined as 83 RU, the dissociation constant (Kd) came out at 7.56 nM, the koff was found to be 0.00297 s⁻¹ and the kon was 393000 M⁻¹ s⁻¹. This molecule also displayed a t1/2 in assay [3] of 4 min. Further, the “t1/2 Ratio pH7.4/pH6.0” value in assay [8] worked out at 9.3.

B5: H4H12166P5 (antibody, human IgG4, V domains shown)
VH: B2 VH with F107H
VL: B2 VL
notes: as for B3
In the case of B5, in assay [3], the “100 nM monkey C5-mmh Bound (RU)” value turned out to be 70 RU; the affinity, expressed as Kd, was 20.9 nM; the koff is 0.00313 s⁻¹; the kon is 150000 M⁻¹ s⁻¹. For the same molecule, the t1/2 in assay [3] was 4 min. Further, the “t1/2 Ratio pH7.4/pH6.0” value in assay [8] was determined as 8.3.

B6: H4H12166P4 (antibody, human IgG4, V domains shown)
VH: B2 VH
VL: B2 VL with T97H
notes: as for B3
On to B6, for which, in assay [3], the “100 nM monkey C5-mmh Bound (RU)” value amounted to 80 RU, the Kd turned out to be 8.2 nM, the koff turned out to be 0.00183 s⁻¹ and the kon stood at 223000 M⁻¹ s⁻¹. In addition, the t1/2 in assay [3] stood at 6 min. In assay [8], the “t1/2 Ratio pH7.4/pH6.0” value amounted to 7.8.

B7: H4H12183P2 (antibody, human IgG4, V domains shown)
VH: QVQLQESGPALVKPSQTLSLTCTVSGGSIIRGSTYWSWVRQFPGKGLEWIGYSYYSGTAYYNPSLESRATISVDTSKNQFSLNLKSVTAADTAVYYCTREIGVAGLFDIWGQGTLVTVSS
VL: not shown
notes: as for B1
For B7, in assay [1], the “100 nM Human C5 R885C-mmh Bound (RU)” value is 25 RU, the Kd came out at 19.5 nM, the off-rate (koff) is 0.000997 s⁻¹ and the kon was 51200 M⁻¹ s⁻¹. Further, the t1/2 in assay [1] amounted to 12 min. Also, in assay [2], the “100 nM Human C5 R885H-mmh Bound (RU)” value stood at 36 RU; the affinity, expressed as Kd, was 7.43 nM; the dissociation rate constant (koff) came to 0.000712 s⁻¹; the kon came out at 95800 M⁻¹ s⁻¹. Further, the t1/2 in assay [2] was 16 min. Moreover, in assay [3], the “100 nM monkey C5-mmh Bound (RU)” value was determined as 13 RU, the Kd was 118 nM, the koff worked out at 0.00637 s⁻¹ and the kon is 54000 M⁻¹ s⁻¹. Also, the t1/2 in assay [3] turned out to be 2 min. Also, in assay [4], the “100 nM Human C5 R885C-mmh Bound (RU)” value came to 80 RU, the Kd was determined as 0.737 nM, the koff amounted to 2.2e-05 s⁻¹ and the kon amounted to 29900 M⁻¹ s⁻¹. In addition, the t1/2 in assay [4] came out at 525 min. In assay [5], the “100 nM Human C5 R885H-mmh Bound (RU)” value turned out to be 99 RU, binding was characterised by a dissociation constant (Kd) of 1.16 nM, the koff worked out at 4.37e-05 s⁻¹ and the kon came to 37700 M⁻¹ s⁻¹. In assay [5], the t1/2 came to 264 min.

One may read the Kd as the constant that tells how readily two partners part at equilibrium. In general, koff refers to a measure of how fast the partners let go of each other. For orientation: kon means a measure of how fast the partners come together.

Values taken from patent publication US20170355757A1 (Regeneron, published 2017).
